{"source": "patent US20250353884A1", "binders": {"B1": {"name": "mTQ::Chim^N (protein, not shown: large carriers)", "chain": "SETGDTIHKTNWGELTVEELFNRGTRYWSEDNSKEYSANDELKVLTFDPVKDEAYYGNINYIYRHKVSKEQWEIEDEAGNTIRVTGDHSIMIERDGQLMDVKPRDMLDTDVLIVVDHN"}}, "biological_target": "T1, Chim^C::mCH", "T1 sequence": "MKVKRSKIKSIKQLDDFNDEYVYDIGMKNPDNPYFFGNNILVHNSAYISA", "experiment": "cell-based or functional assay", "data": [{"binder": "B1", "values": [{"measurement": "Kapp of the PTS reaction, pH 6.0", "value": 0.0107, "unit": "s⁻¹"}, {"measurement": "Kapp of the PTS reaction, pH 6.5", "value": 0.00807, "unit": "s⁻¹"}, {"measurement": "Kapp of the PTS reaction, pH 7.0", "value": 0.00724, "unit": "s⁻¹"}]}]}
